Assay results from patent US20150232562A1 (Ablynx, published 2015).
Where a chain is given by its changes, count along the chain named. Blank lines part the entries; values can stand above or below the binder they belong to.

Key:
[1] = biological target: T1, recombinant human ErbB2/Fc chimera (human, UniProt P04626 23-652); assay: SPR (Biacore T100), Nanobody over immobilised rhErbB2-Fc
T1 construct: bought from R&D Systems; also called rhErbB2-Fc; rhErb2-Fc; Fc part of the bought chimera not given; not described

[2] = biological target: T2, Epidermal Growth Factor Receptor 2 (HER2) (human, UniProt P04626 23-1255); assay: FMAT competition on SKBR3 cells, periplasmic extract
T2 construct: whole, on cells; the cell line is named under assay; also called ErbB-2; ERBB2

[3] = biological target: T1, recombinant human ErbB2/Fc chimera; assay: SPR (Biacore 3000), periplasmic extract over immobilised rhErbB2-Fc
[4] = biological target: T1, recombinant human ErbB2/Fc chimera; assay: SPR (Biacore 3000), purified Nanobody over immobilised rhErbB2-Fc

B2: 2H4 (VHH)
VHH: EVQLVESGGSLVQPGGSLRLSCAASGFTFDDYAMTWVRQAPGKGLEWVSSINWSGTHTDYTDSVKGRFTISRNNANNTLYLQMNSLKSEDTAVYYCAKNWGDAGTTWFEKSGSAGQGTQVTVSS
notes: C-term myc-His6 tag
% blocking of Herceptin binding [2]: > 90% | koff [3]: 0.00161 s⁻¹

B3: 2D4 (VHH)
VHH: B2 VHH with T61A, E89D, Q116P
notes: C-term myc-His6 tag
% blocking of Herceptin binding [2]: > 90% | koff [3]: 0.00165 s⁻¹

B4: 2B1 (VHH)
VHH: B2 VHH with E89D, Q116P
notes: C-term myc-His6 tag
koff [3]: 0.00155 s⁻¹

B7: 2C1 (VHH)
VHH: EVQLVESGGGLVQPGGSLRLSCVASGFSLDDYGMTWVRQAPGKGLEWVSSINWSGTHTDYTDSVKGRFTISRDNAKNTLFLQMNSLTPEDTAVYYCNQGWKIIPTDRRGHGTQVTVSS
notes: C-term myc-His6 tag
koff [3]: 0.00118 s⁻¹

B8: 2D1 (VHH)
VHH: B7 VHH with T61A, T87S, Q98R, I103L, D106N, R108G, G109S
notes: C-term myc-His6 tag
% blocking of Herceptin binding [2]: > 90% | koff [3]: 0.00127 s⁻¹

B11: 2B4 (VHH)
VHH: B7 VHH with A24G, G33A, T61A, T87S, I103R, D106I, R107P, R108M
notes: C-term myc-His6 tag
koff [3]: 0.00277 s⁻¹

B13: 2B3 (VHH)
VHH: B7 VHH with Y60C, T61A
notes: C-term myc-His6 tag
% blocking of Herceptin binding [2]: > 90% | koff [3]: 0.00125 s⁻¹

B15: 2D5 (VHH)
VHH: B7 VHH with T61A, T87R, P88S, I103V, R108G
notes: C-term myc-His6 tag
% blocking of Herceptin binding [2]: > 90% | koff [3]: 0.0012 s⁻¹

B16: 2C2 (VHH)
VHH: B7 VHH with G33A, T61A, K76R, V93I, I103L
notes: C-term myc-His6 tag
% blocking of Herceptin binding [2]: > 90% | koff [3]: 0.00412 s⁻¹

B19: 2D3-35GS-2D3 (VHH)
chain: EVQLVESGGSLVQPGGSLRLSCAASGFTFDDYAMSWVRQVPGKGLEWVSSINWSGTHTDYADSVKGRFTISRNNANNTLYLQMNSLKSEDTAVYYCAKNWRDAGTTWFEKSGSAGQGTQVTVSSGGGGSGGGGSGGGGSGGGGSGGGGSGGGGSGGGGSEVQLVESGGSLVQPGGSLRLSCAASGFTFDDYAMSWVRQVPGKGLEWVSSINWSGTHTDYADSVKGRFTISRNNANNTLYLQMNSLKSEDTAVYYCAKNWRDAGTTWFEKSGSAGQGTQVTVSS
notes: bivalent 2D3, 35GS linker; C-term myc-His6 tag
koff [4]: ~0.0001 s⁻¹

Other lines, results leading:

Kd [1]: 3.21 nM | koff [1]: 0.000869 s⁻¹ | kon [1]: 271000 M⁻¹ s⁻¹
B1: DUMMY-35GS-47D5 (bispecific antibody)
chain: EVQLVESGGGLVQAGGSLRLSCAASGRTFRSYPMGWFRQAPGKEREFVASITGSGGSTYYADSVKGRFTISRDNAKNTVYLQMNSLRPEDTAVYSCAAYIRPDTYLSRDYRKYDYWGQGTQVTVSSGGGGSGGGGSGGGGSGGGGSGGGGSGGGGSGGGGSEVQLVESGGGLVQPGGSLRLSCAASGSIFGFNDMAWYRQAPGKQRELVALISRVGVTSSADSVKGRFTISRVNAKDTVYLQMNSLKPEDTAVYYCYMDQRLDGSTLAYWGQGTQVTVSS
notes: control: dummy Nanobody fused N-terminally to 47D5; C-term myc-His6 tag; also called Dummy-47D5

% blocking of Herceptin binding [2]: > 90% | koff [3]: 0.00153 s⁻¹
B5: 2F3 (VHH)
VHH: B2 VHH with D62G, E89D, Q116P
notes: C-term myc-His6 tag

% blocking of Herceptin binding [2]: > 90% | koff [3]: 0.00157 s⁻¹
B6: 2F5 (VHH)
VHH: B2 VHH with Q13P, T35S
notes: C-term myc-His6 tag

% blocking of Herceptin binding [2]: > 90% | koff [3]: 0.00109 s⁻¹
B9: 2H1 (VHH)
VHH: B7 VHH with T61A, K65R, T69V, T87S
notes: C-term myc-His6 tag

% blocking of Herceptin binding [2]: > 90% | koff [3]: 0.00107 s⁻¹
B10: 2F4 (VHH)
VHH: B7 VHH with T61A, T87R, P88S, I103V
notes: C-term myc-His6 tag

% blocking of Herceptin binding [2]: > 90% | koff [3]: 0.00177 s⁻¹
B12: 2F1 (VHH)
VHH: B7 VHH with G44E, V48I, T61A, I103V, T105M
notes: C-term myc-His6 tag

% blocking of Herceptin binding [2]: > 90% | koff [3]: 0.0013 s⁻¹
B14: 2G2 (VHH)
VHH: B7 VHH with S63P, S85N, Q98R, I103V, R107L, R108G
notes: C-term myc-His6 tag

koff [4]: ~0.001 s⁻¹
B17: 27B7-35GS-2D3 (bispecific antibody)
chain: EVQLVESGGGLVQPGGSLRLSCAASGFTFSSYAMSWVRQAPGKGLEWVSAISSGGGSITTYADSVKGRFTISRDNAKNTLYLQMSSLKPEDTALYYCAKARSSSSYYDFGSWGQGTQVTVSSGGGGSGGGGSGGGGSGGGGSGGGGSGGGGSGGGGSEVQLVESGGSLVQPGGSLRLSCAASGFTFDDYAMSWVRQVPGKGLEWVSSINWSGTHTDYADSVKGRFTISRNNANNTLYLQMNSLKSEDTAVYYCAKNWRDAGTTWFEKSGSAGQGTQVTVSS
notes: biparatopic Nanobody; C-term myc-His6 tag; also called 2B7-35GS-2D3

% blocking of Herceptin binding [2]: > 90%
B18: 118N121_A1_4_OK/1-127 (VHH)
VHH: EVQLVESGGGFVQTGGSPRLSCAASGRSFSEYAAAWFRQSPGKERDLVAGIMWDGRSLFYADSVKGRFTISRDNAKNTLHLQMNSLKPEDTAVYYCAYHKTPYTTLELNRPHAFGSWGQGTQVTVSS
notes: C-term myc-His6 tag

koff [4]: ~0.0001 s⁻¹
B20: 27D1-35GS-2D3 (bispecific antibody)
chain: EVQLVESGGGLVQPGGSLRLSCVASGFSLDDYGMTWVRQAPGKGLEWVSSINWSGTHTDYADSVKGRFTISRDNAKNTLFLQMNSLTPEDTAVYYCNQGWKILPAERRGHGTQVTVSSGGGGSGGGGSGGGGSGGGGSGGGGSGGGGSGGGGSEVQLVESGGSLVQPGGSLRLSCAASGFTFDDYAMSWVRQVPGKGLEWVSSINWSGTHTDYADSVKGRFTISRNNANNTLYLQMNSLKSEDTAVYYCAKNWRDAGTTWFEKSGSAGQGTQVTVSS
notes: biparatopic Nanobody; C-term myc-His6 tag

koff [4]: ~0.001 s⁻¹
B21: 27C3-35GS-2D3 (bispecific antibody)
chain: EVQLVESGGGLVQPGGSLRLSCAASGFTFDDYATSWVRQAPGKGPEWVSAINSGGGSTYYADSVKGRFTISRDNAKNTLYLQMNSLKPEDTAVYYCARPRGSSLYLLEYDYWGQGTQVTVSSGGGGSGGGGSGGGGSGGGGSGGGGSGGGGSGGGGSEVQLVESGGSLVQPGGSLRLSCAASGFTFDDYAMSWVRQVPGKGLEWVSSINWSGTHTDYADSVKGRFTISRNNANNTLYLQMNSLKSEDTAVYYCAKNWRDAGTTWFEKSGSAGQGTQVTVSS
notes: as for B20

koff [4]: ~0.001 s⁻¹
B22: 27H5-35GS-2D3 (bispecific antibody)
chain: EVQLVESGGGLVQAGGSLRLSCAASGFTFDDYGIGWFRQASGKEREGVSCITSSDGSTYYADSVKGRFTISSDNAKNTVYLQMNSLKPEDTAVYYCAALPFVCPSGSYSDYGDEYDYWGQGTQVTVSSGGGGSGGGGSGGGGSGGGGSGGGGSGGGGSGGGGSEVQLVESGGSLVQPGGSLRLSCAASGFTFDDYAMSWVRQVPGKGLEWVSSINWSGTHTDYADSVKGRFTISRNNANNTLYLQMNSLKSEDTAVYYCAKNWRDAGTTWFEKSGSAGQGTQVTVSS
notes: as for B20
